Measured values taken from publication doi:10.1101/2020.06.04.133611 (bioRxiv, 2020).

Key:
[1] = biological target: Strep-tagged MlaDΔTM (E. coli K-12); assay: SDS-PAGE of the purified protein
cryo-EM structure = biological target: the molecule itself; assay: cryo-EM structure

Molecule: Strep-tagged MlaDΔTM (domain or fragment)
- stoichiometry N [1]: 6

B1: MlaE (natural protein)
chain: MLLNALASLGHKGIKTLRTFGRAGLMLFNALVGKPEFRKHAPLLVRQLYNVGVLSMLIIVVSGVFIGMVLGLQGYLVLTTYSAETSLGMLVALSLLRELGPVVAALLFAGRAGSALTAEIGLMRATEQLSSMEMMAVDPLRRVISPRFWAGVISLPLLTVIFVAVGIWGGSLVGVSWKGIDSGFFWSAMQNAVDWRMDLVNCLIKSVVFAITVTWISLFNGYDAIPTSAGISRATTRTVVHSSLAVLGLDFVLTALMFGN
- stoichiometry N (cryo-EM structure): 2

B2: MlaF (natural protein)
chain: MEQSVANLVDMRDVSFTRGNRCIFDNISLTVPRGKITAIMGPSGIGKTTLLRLIGGQIAPDHGEILFDGENIPAMSRSRLYTVRKRMSMLFQSGALFTDMNVFDNVAYPLREHTQLPAPLLHSTVMMKLEAVGLRGAAKLMPSELSGGMARRAALARAIALEPDLIMFDEPFVGQDPITMGVLVKLISELNSALGVTCVVVSHDVPEVLSIADHAWILADKKIVAHGSAQALQANPDPRVRQFLDGIADGPVPFRYPAGDYHADLLPGS
- stoichiometry N (cryo-EM structure): 2
